Test results taken from US20250297287A1.

Legend:
[1] = biological target: albumin (Sigma A9731) (human) (UniProt P02768); assay: SPR (CM5 chip), albumin immobilised, FcRn in solution, pH 5.8, 25 C
[2] = biological target: albumin (Sigma A9731) (human) (UniProt P02768); assay: SPR (C1 chip), FcRn-biotin on surface, albumin injected, pH 5.8, 25 C
human IgG4 (human) [3] = assay: SPR (CM5 chip), IgG immobilised, FcRn in solution, pH 5.8, 25 C
human IgG3 (human) [4] = biological target: human IgG3 (human) (UniProt P01860); assay: as above
human IgG3 (human), sequence (P01860 other isoform, or with tags, fused parts or gaps): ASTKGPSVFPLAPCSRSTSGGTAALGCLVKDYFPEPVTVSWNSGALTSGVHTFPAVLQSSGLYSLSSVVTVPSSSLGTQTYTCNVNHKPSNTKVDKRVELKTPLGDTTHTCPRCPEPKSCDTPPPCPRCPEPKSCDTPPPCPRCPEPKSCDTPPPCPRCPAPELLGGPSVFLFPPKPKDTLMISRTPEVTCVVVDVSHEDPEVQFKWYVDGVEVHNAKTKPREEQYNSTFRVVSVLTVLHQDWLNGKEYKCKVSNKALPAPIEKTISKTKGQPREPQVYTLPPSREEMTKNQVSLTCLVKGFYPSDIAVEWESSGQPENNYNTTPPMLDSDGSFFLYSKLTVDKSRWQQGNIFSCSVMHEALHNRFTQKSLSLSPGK

human IgG4 (human) [5] = assay: SPR (C1 chip), FcRn-biotin on surface, IgG injected, pH 5.8; estimated from limited surface saturation
human IgG2 (human) = assay: as above
human IgG2 (human), sequence (Fc, as listed by the source limits assumed): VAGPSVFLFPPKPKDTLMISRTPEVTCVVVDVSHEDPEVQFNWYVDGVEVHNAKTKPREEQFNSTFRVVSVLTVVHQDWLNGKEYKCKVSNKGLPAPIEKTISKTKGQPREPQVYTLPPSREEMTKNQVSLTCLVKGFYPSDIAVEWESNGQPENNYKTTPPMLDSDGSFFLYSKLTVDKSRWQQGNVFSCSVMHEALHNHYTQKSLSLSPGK

human IgG3 (human) [6] = biological target: human IgG3 (human) (UniProt P01860); assay: as above
human IgG1 (human) = assay: as above

Substance	Kd [1]	Kd [2]	Kd (human IgG4 (human) [3])	Kd (human IgG3 (human) [4])	Kd (human IgG4 (human) [5])	Kd (human IgG2 (human))	Kd (human IgG3 (human) [6])	Kd (human IgG1 (human))
FcRn E133K (extracellular domain with beta2 microglobulin) (from UniProt P61769 21-119) (receptor)	0.96 µM							
FcRn M118I (extracellular domain with beta2 microglobulin) (from UniProt P61769 21-119) (receptor)	0.48 µM	1.9 µM	0.239 µM	0.21 µM	12.6 µM	6.6 µM	4.2 µM	5.2 µM
FcRn W131R (extracellular domain with beta2 microglobulin) (from UniProt P61769 21-119) (receptor)	0.44 µM	1.7 µM						
